According to article PMC10897178, “FANCJ DNA helicase is recruited to the replisome by AND-1 to ensure genome stability” (EMBO Reports, 2024):

B3: 6xHis-tagged AND-1 SepB (domain or fragment, human, UniProt O75717 336-826, looked up)
chain: GDFLNDNAVEIPSFSKGIINDDEDDEDLMMASGRPRQRSHILEDDENSVDISMLKTGSSLLKEEEEDGQEGSIHNLPLVTSQRPFYDGPMPTPRQKPFQSGSTPLHLTHRFMVWNSIGIIRCYNDEQDNAIDVEFHDTSIHHATHLSNTLNYTIADLSHEAILLACESTDELASKLHCLHFSSWDSSKEWIIDLPQNEDIEAICLGQGWAAAATSALLLRLFTIGGVQKEVFSLAGPVVSMAGHGEQLFIVYHRGTGFDGDQCLGVQLLELGKKKKQILHGDPLPLTRKSYLAWIGFSAEGTPCYVDSEGIVRMLNRGLGNTWTPICNTREHCKGKSDHYWVVGIHENPQQLRCIPCKGSRFPPTLPRPAVAILSFKLPYCQIATEKGQMEEQFWRSVIFHNHLDYLAKNGYEYEESTKNQATKEQQELLMKMLALSCKLEREFRCVELADLMTQNAVNLAIKYASRSRKLILAQKLSELAVEKAAELTAT
notes: AND-1 (WDHD1), human, SepB domain, amino-acid residues 336-826; pRSF-Duet-1 construct from Luca Pellegrini; purification as in Kilkenny et al, 2017; also called 6xHis-SepB; AND-1 SepB domain; source: E. coli BL21 (DE3), purified

Assays:
Conditions in all cases: both partners purified
[1] = target: T1, Flag-tagged FANCJ wild type (human, UniProt Q9BX63 1-1249); assay: pull-down; His10-Myc-AND-1 (12 μg) on c-Myc magnetic beads, purified FANCJ (4 μg) added; PBS, 5% glycerol, 0.5 mM TCEP, 0.2% Igepal, Benzonase, 2 h at 4 °C; Western blot
T1 construct: FANCJ (BRIP1, BACH1) DNA helicase, human, open reading frame; purified as full-length protein; Plasmid from Hisao Masai (Uno et al, 2012); also called FANCJ WT; Flag-FANCJ WT; source: HEK 293T, transiently transfected (pCSII-EF-MCS): in whole-cell extract or nuclear fraction; also purified (anti-Flag M2 agarose, 3x Flag-peptide elution)
T1 sequence (looked up): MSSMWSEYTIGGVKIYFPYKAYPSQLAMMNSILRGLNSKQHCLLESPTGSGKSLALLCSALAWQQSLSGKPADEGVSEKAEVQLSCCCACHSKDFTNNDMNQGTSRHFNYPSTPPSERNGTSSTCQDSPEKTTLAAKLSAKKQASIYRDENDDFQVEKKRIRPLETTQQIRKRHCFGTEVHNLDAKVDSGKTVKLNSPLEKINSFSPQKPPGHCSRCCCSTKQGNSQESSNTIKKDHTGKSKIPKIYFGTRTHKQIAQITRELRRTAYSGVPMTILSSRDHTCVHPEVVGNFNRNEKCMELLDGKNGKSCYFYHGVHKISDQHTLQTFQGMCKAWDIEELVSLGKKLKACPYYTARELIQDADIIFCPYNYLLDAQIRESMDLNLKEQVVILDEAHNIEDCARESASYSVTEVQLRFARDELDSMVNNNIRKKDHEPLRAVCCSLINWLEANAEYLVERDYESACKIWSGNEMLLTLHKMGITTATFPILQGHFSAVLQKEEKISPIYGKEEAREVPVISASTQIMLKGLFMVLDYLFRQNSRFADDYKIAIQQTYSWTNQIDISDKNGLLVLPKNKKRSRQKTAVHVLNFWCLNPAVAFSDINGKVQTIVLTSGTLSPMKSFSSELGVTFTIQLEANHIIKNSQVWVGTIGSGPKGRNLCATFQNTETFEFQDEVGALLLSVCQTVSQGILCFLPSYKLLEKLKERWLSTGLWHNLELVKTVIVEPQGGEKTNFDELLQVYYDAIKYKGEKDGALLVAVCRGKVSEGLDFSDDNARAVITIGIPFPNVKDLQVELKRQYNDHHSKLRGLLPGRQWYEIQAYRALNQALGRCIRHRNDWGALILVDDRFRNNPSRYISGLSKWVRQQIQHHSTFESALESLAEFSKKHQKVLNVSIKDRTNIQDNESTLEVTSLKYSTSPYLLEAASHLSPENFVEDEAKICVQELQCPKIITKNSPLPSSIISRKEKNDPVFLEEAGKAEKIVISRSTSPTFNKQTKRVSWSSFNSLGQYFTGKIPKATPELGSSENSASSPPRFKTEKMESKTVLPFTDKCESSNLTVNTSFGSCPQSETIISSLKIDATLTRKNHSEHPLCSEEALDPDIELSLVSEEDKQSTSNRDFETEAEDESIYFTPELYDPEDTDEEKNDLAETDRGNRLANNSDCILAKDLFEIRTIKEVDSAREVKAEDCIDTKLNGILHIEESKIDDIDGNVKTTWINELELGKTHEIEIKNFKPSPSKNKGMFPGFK

[2] = target: B3; assay: pull-down; GST-FANCJ CIP box on Glutathione Sepharose 4B beads, purified AND-1 SepB (0.5 mg in 500 μL) added; PD Buffer 1 with 1% BSA, 1 h at 4 °C; SDS-PAGE, Coomassie
[3] = target: T1, Flag-tagged FANCJ wild type; assay: pull-down; Flag-tagged protein (2 µg) on anti-Flag M2 agarose beads, purified AND-1 SepB (4 µg) added; 20 mM HEPES-NaOH pH 7.2, 150 mM NaCl, 0.1% Igepal, 1% BSA, 4 °C; Western blot

B1: full-length 10xHis-Myc-tagged AND-1 (natural protein, human, UniProt O75717 1-1129, looked up)
chain: MPATRKPMRYGHTEGHTEVCFDDSGSFIVTCGSDGDVRIWEDLDDDDPKFINVGEKAYSCALKSGKLVTAVSNNTIQVHTFPEGVPDGILTRFTTNANHVVFNGDGTKIAAGSSDFLVKIVDVMDSSQQKTFRGHDAPVLSLSFDPKDIFLASASCDGSVRVWQISDQTCAISWPLLQKCNDVINAKSICRLAWQPKSGKLLAIPVEKSVKLYRRESWSHQFDLSDNFISQTLNIVTWSPCGQYLAAGSINGLIIVWNVETKDCMERVKHEKGYAICGLAWHPTCGRISYTDAEGNLGLLENVCDPSGKTSSSKVSSRVEKDYNDLFDGDDMSNAGDFLNDNAVEIPSFSKGIINDDEDDEDLMMASGRPRQRSHILEDDENSVDISMLKTGSSLLKEEEEDGQEGSIHNLPLVTSQRPFYDGPMPTPRQKPFQSGSTPLHLTHRFMVWNSIGIIRCYNDEQDNAIDVEFHDTSIHHATHLSNTLNYTIADLSHEAILLACESTDELASKLHCLHFSSWDSSKEWIIDLPQNEDIEAICLGQGWAAAATSALLLRLFTIGGVQKEVFSLAGPVVSMAGHGEQLFIVYHRGTGFDGDQCLGVQLLELGKKKKQILHGDPLPLTRKSYLAWIGFSAEGTPCYVDSEGIVRMLNRGLGNTWTPICNTREHCKGKSDHYWVVGIHENPQQLRCIPCKGSRFPPTLPRPAVAILSFKLPYCQIATEKGQMEEQFWRSVIFHNHLDYLAKNGYEYEESTKNQATKEQQELLMKMLALSCKLEREFRCVELADLMTQNAVNLAIKYASRSRKLILAQKLSELAVEKAAELTATQVEEEEEEEDFRKKLNAGYSNTATEWSQPRFRNQVEEDAEDSGEADDEEKPEIHKPGQNSFSKSTNSSDVSAKSGAVTFSSQGRVNPFKVSASSKEPAMSMNSARSTNILDNMGKSSKKSTALSRTTNNEKSPIIKPLIPKPKPKQASAASYFQKRNSQTNKTEEVKEENLKNVLSETPAICPPQNTENQRPKTGFQMWLEENRSNILSDNPDFSDEADIIKEGMIRFRVLSTEERKVWANKAKGETASEGTEAKKRKRVVDESDETENQEEKAKENLNLSKKQKPLDFSTNQKLSAFAFKQE
notes: AND-1 (WDHD1), human, full length, amino-acid residues 1-1129; pFBDM construct from Luca Pellegrini (Kilkenny et al, 2017); also called His10-Myc-tagged AND-1; AND-1 full-length; source: High-Five insect cells, baculovirus, purified (Ni-NTA, HiTrap Q)
B1: binds [1].

B2: GST-FANCJ CIP box wild type (domain or fragment, human, UniProt Q9BX63 730-747, looked up)
chain: GEKTNFDELLQVYYDAIK
notes: FANCJ (BRIP1), human, CIP box, amino-acid residues 730-747; also called GST-CIP box WT; source: transformed cells cultured in LB medium, IPTG-induced (pGEX-6P-1); captured from the soluble extract on Glutathione Sepharose 4B beads
B2: binds [2].

B3: binds [3].
